Data: patent US20140175018A1 (published 2014)
Bridge positions count the residues as written; N and C are the ends. Square brackets hold non-standard residues; d marks the D form. Side chains are listed from the residue outwards. * marks the point of attachment. Biotin = O=C1N[C@H]2[C@H](CS[C@H]2CCCCC(=O)*)N1; pGlu = O=C1CC[C@@H](C(=O)O)N1; Nle = CCCC[C@H](N)C(=O)O; PEG = not defined here

Experiments:
[1] = biological target: T1, chemokine (C-C motif) receptor 9 (CCR9) (human, UniProt P51686 1-369); assay: cell-based or functional assay
T1 sequence (looked up): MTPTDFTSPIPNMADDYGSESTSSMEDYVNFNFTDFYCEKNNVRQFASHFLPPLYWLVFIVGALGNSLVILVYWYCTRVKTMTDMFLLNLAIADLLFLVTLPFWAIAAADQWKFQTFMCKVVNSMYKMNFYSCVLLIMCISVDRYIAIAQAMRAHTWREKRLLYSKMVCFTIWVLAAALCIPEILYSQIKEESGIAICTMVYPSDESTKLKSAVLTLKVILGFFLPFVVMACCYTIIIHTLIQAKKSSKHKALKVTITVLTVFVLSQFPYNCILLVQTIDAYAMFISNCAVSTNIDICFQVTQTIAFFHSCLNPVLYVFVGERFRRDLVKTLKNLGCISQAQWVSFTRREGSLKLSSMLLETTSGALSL

[2] = biological target: T2, chemokine (C-C motif) receptor 7 (CCR7) (human, UniProt P32248 25-378); assay: cell-based or functional assay
T2 sequence (looked up): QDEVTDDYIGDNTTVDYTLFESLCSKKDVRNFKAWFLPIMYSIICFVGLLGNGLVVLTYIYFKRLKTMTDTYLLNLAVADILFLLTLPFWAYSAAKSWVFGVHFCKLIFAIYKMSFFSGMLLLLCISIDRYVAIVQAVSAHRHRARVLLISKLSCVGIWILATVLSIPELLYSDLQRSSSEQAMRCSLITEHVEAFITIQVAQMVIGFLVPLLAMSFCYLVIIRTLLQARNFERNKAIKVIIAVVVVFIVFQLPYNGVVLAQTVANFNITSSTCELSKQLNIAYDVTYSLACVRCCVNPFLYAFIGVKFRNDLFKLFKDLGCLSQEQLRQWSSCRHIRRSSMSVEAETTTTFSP

[3] = biological target: T3, chemokine (C-C motif) receptor 5 (CCR5) (human, UniProt P51681 1-352); assay: cell-based or functional assay
[4] = biological target: T3, chemokine (C-C motif) receptor 5 (CCR5); assay: blood passed through chemokine-coupled column; flow cytometry before and after
[5] = biological target: T4, chemokine (C-C motif) receptor 1 (CCR1) (human, UniProt P32246 1-355); assay: as above
T4 construct: whole, on cells
T4 sequence (looked up): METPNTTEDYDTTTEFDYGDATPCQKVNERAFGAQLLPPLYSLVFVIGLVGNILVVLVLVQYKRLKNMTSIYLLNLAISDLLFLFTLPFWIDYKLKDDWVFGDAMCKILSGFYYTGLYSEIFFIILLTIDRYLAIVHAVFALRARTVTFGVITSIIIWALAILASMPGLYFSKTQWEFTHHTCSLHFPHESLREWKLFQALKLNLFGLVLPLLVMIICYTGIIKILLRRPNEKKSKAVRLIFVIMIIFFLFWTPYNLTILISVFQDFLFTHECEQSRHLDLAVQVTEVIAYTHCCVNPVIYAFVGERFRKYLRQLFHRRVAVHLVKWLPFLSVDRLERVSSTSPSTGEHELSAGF

hCCR2b = biological target: T5, hCCR2b (human, UniProt P41597 1-374); assay: cell-based or functional assay
T5 chain: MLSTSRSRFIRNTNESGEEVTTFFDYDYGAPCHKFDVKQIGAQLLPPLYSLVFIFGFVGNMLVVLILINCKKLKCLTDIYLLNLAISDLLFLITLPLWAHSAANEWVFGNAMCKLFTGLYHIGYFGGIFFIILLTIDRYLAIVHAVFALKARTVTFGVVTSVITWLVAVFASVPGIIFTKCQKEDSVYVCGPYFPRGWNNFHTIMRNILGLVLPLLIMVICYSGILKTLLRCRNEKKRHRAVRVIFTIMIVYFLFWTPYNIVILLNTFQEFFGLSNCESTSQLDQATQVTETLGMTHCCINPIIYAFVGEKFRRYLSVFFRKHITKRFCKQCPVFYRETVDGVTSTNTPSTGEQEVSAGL

[6] = biological target: T6, chemokine (C-C motif) receptor 4 (CCR4) (human, UniProt P51679 1-360); assay: cell-based or functional assay
T6 sequence (looked up): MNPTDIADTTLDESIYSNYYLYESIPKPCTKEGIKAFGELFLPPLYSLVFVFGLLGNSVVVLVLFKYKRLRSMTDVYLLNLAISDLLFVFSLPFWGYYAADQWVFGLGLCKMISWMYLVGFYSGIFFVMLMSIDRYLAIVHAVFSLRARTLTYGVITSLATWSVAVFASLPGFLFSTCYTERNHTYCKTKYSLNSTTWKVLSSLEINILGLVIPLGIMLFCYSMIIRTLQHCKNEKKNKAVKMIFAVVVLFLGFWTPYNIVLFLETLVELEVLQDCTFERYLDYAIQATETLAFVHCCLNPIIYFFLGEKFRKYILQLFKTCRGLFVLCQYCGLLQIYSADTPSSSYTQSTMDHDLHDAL

[7] = biological target: T1, chemokine (C-C motif) receptor 9 (CCR9); assay: flow cytometry; labelled chemokine on fixed blood leukocytes
[8] = biological target: T7, chemokine (C-C motif) receptor 3 (CCR3) (human, UniProt P51677 1-355); assay: flow cytometry; eotaxin binding compared with anti-CCR3 staining of neutrophils/eosinophils
T7 construct: whole, on cells; also called hCCR3
T7 sequence (looked up): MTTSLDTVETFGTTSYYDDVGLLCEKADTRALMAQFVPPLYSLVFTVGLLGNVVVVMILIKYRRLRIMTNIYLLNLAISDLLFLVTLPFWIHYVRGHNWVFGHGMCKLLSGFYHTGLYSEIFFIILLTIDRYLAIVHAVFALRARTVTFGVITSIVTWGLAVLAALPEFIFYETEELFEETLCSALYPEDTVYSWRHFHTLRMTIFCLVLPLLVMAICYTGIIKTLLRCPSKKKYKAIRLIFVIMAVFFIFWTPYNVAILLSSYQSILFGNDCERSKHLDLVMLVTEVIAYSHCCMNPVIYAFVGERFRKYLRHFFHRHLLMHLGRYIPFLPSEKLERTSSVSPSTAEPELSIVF

T3 sequence (P51681 whole entry): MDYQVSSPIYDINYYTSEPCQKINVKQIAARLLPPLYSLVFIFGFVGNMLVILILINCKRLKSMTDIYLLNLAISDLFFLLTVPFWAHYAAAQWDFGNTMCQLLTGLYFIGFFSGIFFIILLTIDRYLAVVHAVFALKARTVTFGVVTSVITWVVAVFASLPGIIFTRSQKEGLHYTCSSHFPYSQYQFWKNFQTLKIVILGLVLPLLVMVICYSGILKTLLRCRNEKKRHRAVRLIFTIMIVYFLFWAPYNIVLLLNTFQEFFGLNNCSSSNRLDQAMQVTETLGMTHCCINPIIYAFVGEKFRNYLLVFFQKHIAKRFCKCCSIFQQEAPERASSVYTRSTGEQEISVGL

B1: biotinTECK (Met to Nleu substitution): TECK derivatised at the epsilon-amino side chain of Lys72 with PEG-Biotin (ligand)
chain: [pGlu]GVFEDCCLAYHYPIGWAVLRRAWTYRIQEVSGSCNLPAAIFYLPKRHRKVCGNPKSREVQRA[Nle]KLLDARNK([PEG-Biotin])VF-OH
modifications: disulfide 7-35, 8-52; reading uncertain
EC50 (agonist activity, Aequorin assay) [1]: 63.6 nM

B2: biotinMIP-3b (CCL19): MIP-3b derivatised at Lys(78) with Biotin (ligand)
chain: GTNDAEDCCLSVTQKPIPGYIVRNFHYLLIKDGCRVPAVVFTTLRGRQLCAPPDQPWVERIIQRLQRTSAKMKRRSSX
modifications: X78 = K(Biotin), an additional C-terminal lysine; C-terminal amide
EC50 (agonist activity, Aequorin assay) [2]: 11 nM

B3: biotinRANTES (CCL5): RANTES derivatised at Lys(67) with Biotin (ligand)
chain: SPYSSDTTPCCFAYIARPLPRAHIKEYFYTSGKCSNPAVVFVTRKNRQVCANPEKKWVREYINSLEK(Biotin)S-OH
modifications: disulfide 10-34, 11-50
notes: also called bRANTES; biotinylated RANTES
EC50 (agonist activity, Aequorin assay) [3]: 0.5 nM | percent reduction of chemokine receptor-expressing cells (CCR1, 3 or 5, not told apart) [4]: ~20% | percent reduction of chemokine receptor-expressing cells (CCR1, 3 or 5, not told apart) [5]: ~20%

B4: recombinant native MCP-2 (ligand, UniProt P80075 24-99, looked up)
chain: QPDSVSIPITCCFNVINRKIPIQRLESYTRITNIQCPKEAVIFKTKRGKEVCADPKERWVRDSMKHLDQIFQNLKP
EC50 (partial agonist, Aequorin assay) (hCCR2b): 23.5 nM

B5: biotinMDC (CCL22): MDC derivatised at Lys(66) with PEG-Biotin (ligand)
chain: GPYGANMEDSVCCRDYVRYRLPLRVVKHFYWTSDSCPRPGVVLLTFRDKEICADPRVPWVKMILNK([PEG-Biotin])LSQ-NH2
modifications: disulfide 12-36, 13-52; reading uncertain
EC50 (agonist activity, Aequorin assay) [6]: 4.5 nM

B6: Biotinylated CCL25 (Almac Sciences) (ligand, UniProt O15444 24-97, looked up)
chain: QGVFEDCCLAYHYPIGWAVLRRAWTYRIQEVSGSCNLPAAIFYLPKRHRKVCGNPKSREVQRAMKLLDARNKVF
modifications: biotinylated (site not stated); for the flow cytometry tests also Alexa647 Fluor labeled
notes: also called biotinylated and Alexa647 Fluor labeled CCL25; CCL25-coated sepharose beads
percent of CD4+ lymphocytes bound (Crohn's patient) [7]: ~90% | percent of CD8+ lymphocytes bound (Crohn's patient) [7]: ~80% | percent of monocytes bound (Crohn's patient) [7]: ~90%

B7: biotinylated and Alexa647 Fluor labeled eotaxin (Almac Sciences) (ligand)
chain: not shown
modifications: biotinylated and Alexa647 Fluor labeled (sites not given)
binding result [8]: binds
